In experiment [1] the target is T1, Robo1 (ORIGEN Company, number: TP327713) (UniProt Q9Y6N7 26-1651, limits assumed).
T1 construct: also called receptor Robo1; target protein Robo1
Briefly: SPR (BIAcore), Robo1 bound on CM5 chip; column head 'Kd (nM)'. The method, then:
(§1) The affinity constant between the prepared protein and Robo1 was determined by SPR (Surface Plasmon resonance BIAcore200). The Robo1 (ORIGEN Company, number: TP327713) was bound on CM5 chip and used to analysis the interaction between fusion protein Slit2D2-HSA and receptor Robo1. Kinetic measurements were carried out according to the method referred by Canziani et al. (2004, Anal. Biochem. 325:301-307), simultaneously, the same method was applied to measure the affinity between Slit2N protein (Slit2N is a protein at N-terminal of slit2 with a molecular weight of about 120 KDa) and Robo1.
Background: Surface plasmon resonance follows binding to a sensor surface in real time, without labels.

For experiment [2], the target named is T1, Robo1 (ORIGEN Company, number: TP327713). The experiment in a line: SPR (BIAcore), Robo1 bound on CM5 chip. How it is done: as §1

For one molecule, Kd and kon results are on record in patent publication US20180094045A1 (ASCLEPIUS SUZHOU TECHNOLOGY COMPANY GROUP, published 2018).

The term Kd denotes the constant that tells how readily two partners part at equilibrium. The term kon denotes the rate constant with which the complex forms.

T1 sequence (Q9Y6N7 26-1651 limits assumed): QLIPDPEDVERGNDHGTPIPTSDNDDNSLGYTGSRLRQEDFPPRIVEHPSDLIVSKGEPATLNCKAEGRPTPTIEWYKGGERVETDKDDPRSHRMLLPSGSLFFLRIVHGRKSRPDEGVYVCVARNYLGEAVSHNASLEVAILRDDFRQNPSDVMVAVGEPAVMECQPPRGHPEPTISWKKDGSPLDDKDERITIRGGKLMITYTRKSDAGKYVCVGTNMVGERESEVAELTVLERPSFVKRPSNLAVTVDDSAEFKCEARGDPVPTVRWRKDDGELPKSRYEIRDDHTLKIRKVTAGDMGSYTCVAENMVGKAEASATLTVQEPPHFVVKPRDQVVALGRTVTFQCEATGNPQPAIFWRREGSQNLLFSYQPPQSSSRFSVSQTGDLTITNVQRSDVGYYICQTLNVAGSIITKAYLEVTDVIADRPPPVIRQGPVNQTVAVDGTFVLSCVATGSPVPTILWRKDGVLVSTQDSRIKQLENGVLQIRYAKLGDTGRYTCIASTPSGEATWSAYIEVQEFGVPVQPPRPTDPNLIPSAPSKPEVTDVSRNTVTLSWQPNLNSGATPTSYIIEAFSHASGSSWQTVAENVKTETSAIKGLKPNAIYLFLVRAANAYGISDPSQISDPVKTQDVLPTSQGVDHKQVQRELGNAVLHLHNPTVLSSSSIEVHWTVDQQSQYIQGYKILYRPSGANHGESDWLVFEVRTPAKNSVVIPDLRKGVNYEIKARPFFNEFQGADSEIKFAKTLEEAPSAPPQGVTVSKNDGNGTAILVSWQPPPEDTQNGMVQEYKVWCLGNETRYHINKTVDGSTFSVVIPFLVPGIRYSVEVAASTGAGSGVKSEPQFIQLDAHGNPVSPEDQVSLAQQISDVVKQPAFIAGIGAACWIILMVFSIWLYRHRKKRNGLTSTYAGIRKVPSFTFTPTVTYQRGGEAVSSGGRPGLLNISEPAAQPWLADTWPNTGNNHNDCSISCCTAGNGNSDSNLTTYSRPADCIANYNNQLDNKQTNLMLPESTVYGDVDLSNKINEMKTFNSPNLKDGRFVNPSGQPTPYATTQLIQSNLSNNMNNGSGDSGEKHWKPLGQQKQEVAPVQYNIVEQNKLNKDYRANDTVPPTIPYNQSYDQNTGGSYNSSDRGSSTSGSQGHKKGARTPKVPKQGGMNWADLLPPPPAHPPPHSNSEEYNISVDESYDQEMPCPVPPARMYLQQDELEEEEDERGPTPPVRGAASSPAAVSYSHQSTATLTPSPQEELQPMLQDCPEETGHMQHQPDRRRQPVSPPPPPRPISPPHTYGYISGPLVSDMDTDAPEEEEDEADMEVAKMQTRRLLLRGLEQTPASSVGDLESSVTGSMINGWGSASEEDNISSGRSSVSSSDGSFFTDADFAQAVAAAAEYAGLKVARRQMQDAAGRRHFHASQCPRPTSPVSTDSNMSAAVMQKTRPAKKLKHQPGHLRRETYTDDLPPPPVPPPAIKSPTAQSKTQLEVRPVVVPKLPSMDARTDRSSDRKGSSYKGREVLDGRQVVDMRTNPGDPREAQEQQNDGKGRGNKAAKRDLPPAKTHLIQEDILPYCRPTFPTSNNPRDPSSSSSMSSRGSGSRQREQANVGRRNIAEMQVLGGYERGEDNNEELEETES

B1: Slit2N protein (ligand, UniProt O94813 31-1121, looked up)
chain: QCSCSGSTVDCHGLALRSVPRNIPRNTERLDLNGNNITRITKTDFAGLRHLRVLQLMENKISTIERGAFQDLKELERLRLNRNHLQLFPELLFLGTAKLYRLDLSENQIQAIPRKAFRGAVDIKNLQLDYNQISCIEDGAFRALRDLEVLTLNNNNITRLSVASFNHMPKLRTFRLHSNNLYCDCHLAWLSDWLRQRPRVGLYTQCMGPSHLRGHNVAEVQKREFVCSGHQSFMAPSCSVLHCPAACTCSNNIVDCRGKGLTEIPTNLPETITEIRLEQNTIKVIPPGAFSPYKKLRRIDLSNNQISELAPDAFQGLRSLNSLVLYGNKITELPKSLFEGLFSLQLLLLNANKINCLRVDAFQDLHNLNLLSLYDNKLQTIAKGTFSPLRAIQTMHLAQNPFICDCHLKWLADYLHTNPIETSGARCTSPRRLANKRIGQIKSKKFRCSAKEQYFIPGTEDYRSKLSGDCFADLACPEKCRCEGTTVDCSNQKLNKIPEHIPQYTAELRLNNNEFTVLEATGIFKKLPQLRKINFSNNKITDIEEGAFEGASGVNEILLTSNRLENVQHKMFKGLESLKTLMLRSNRITCVGNDSFIGLSSVRLLSLYDNQITTVAPGAFDTLHSLSTLNLLANPFNCNCYLAWLGEWLRKKRIVTGNPRCQKPYFLKEIPIQDVAIQDFTCDDGNDDNSCSPLSRCPTECTCLDTVVRCSNKGLKVLPKGIPRDVTELYLDGNQFTLVPKELSNYKHLTLIDLSNNRISTLSNQSFSNMTQLLTLILSYNRLRCIPPRTFDGLKSLRLLSLHGNDISVVPEGAFNDLSALSHLAIGANPLYCDCNMQWLSDWVKSEYKEPGIARCAGPGEMADKLLLTTPSKKFTCQGPVDVNILAKCNPCLSNPCKNDGTCNSDPVDFYRCTCPYGFKGQDCDVPIHACISNPCKHGGTCHLKEGEEDGFWCICADGFEGENCEVNVDDCEDNDCENNSTCVDGINNYTCLCPPEYTGELCEEKLDFCAQDLNPCQHDSKCILTPKGFKCDCTPGYVGEHCDIDFDDCQDNKCKNGAHCTDAVNGYTCICPEGYSGLFCEFSPPMVLPR
notes: domain: protein at N-terminal of slit2 with a molecular weight of about 120 KDa; Comparator in the SPR experiment
B1 returned a Kd in experiment [1] of 4.5 nM. In experiment [2], this molecule returned a kon of 744000 M⁻¹ s⁻¹.
